assay: yeast display, Sf9 membrane polyspecificity reagent, FACS + sequencing; frameworks hold sequencing errors
Method in brief: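 A synthetic nanobody library was expressed on Saccharomyces cerevisiae BJ5465 by galactose induction for 36–48 hours. The library was stained for 1 hour at 4 °C with 10% biotinylated, detergent-solubilized Sf9 membrane reagent and enriched with streptavidin microbeads before FACS. Low and high (top ~1%) gates were set on anti-HA fluorescence for expression and streptavidin fluorescence for reagent binding, and each polyreactivity label reflects the gate of origin.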

Row | Sequence | polyreactivity (PSR sort gate)
1 | QVQLVESGGGLVQAGGSLRLSCAASGSILWYYAMGWDRQAPGKERELVATITSGGSTYYADSVKGRFTISRDNAKNSVYLQMNSLKPEDTAVYYCNADLAVDEYDYWGQGTQVTVSS | low polyreactivity
2 | QVQLVESGGGLVQAGGSLRLSCAASGSILYGNAMGWYRQAPGKERELVAAISWRGGRTYYADSVKGRFTISRDNAKNTVYLQMNSLKPEDTAVYYCAAQIGLVSGRDYWGQGTQVTVSS | high polyreactivity
3 | QVQLVESGGGLVQAGGSLRLSCAASGSILYGNDMGWYRQAPGKERELVANITSSDSTYYADSVKGRFTISRDNAKNTVYLQMNSLKPEDTAVYYCASDDVGWGYYVYSYPYDYWGQGTQVNVSS | low polyreactivity
4 | QVQLVESGGGLVQAGGSLRLSCAASGSILYLNAMGWYRQAPGKERELVASISSSGGNTYYADSVTGRFTISRDNAKNTVYFQMNSLKPEDTAVYYCNTRWVHRDWYDYWGQGTQVTVSS | high polyreactivity
5 | QVQLVESGGGLVQAGGSLRLSCAASGSILYLNAMGWYRQAPGKERELVATISNGGSTNYADSVKGRFTISRDNAKNTVYLQMNSLKPEDTAVYYCAAASGGTVVGEGDYWGQGTQVTVSS | low polyreactivity
6 | QVQLVESGGGLVQAGGSLRLSCAASGSILYPNAMGWYRQAPGKERELVAAISTSGGSTYYADSVKGRFTLSRDNAKNTVYLQMNSLKPEDTAVYYCAKGWIYYSTWISEYWGQGTQVTVSS | low polyreactivity
7 | QVQLVESGGGLVQAGGSLRLSCAASGSILYRYTMGWYRLAPGTERELVAAITKRGGRTYYADSVKGRITISRDNAMNTVYLQMNSLKPEDTAVFYCYALLTGGYQDSYPDDYWGQGTHVTVSS | high polyreactivity
8 | QVQLVESGGGLVQAGGSLRLSCAASGSILYRYTMGWYRPAPGKERELVAAITKRGGRTYYADSVKGRFTISRDNAKNTVYLQMNSLKPEDTAVYYCAAKYYTGGSFEMYYGGQGTQVTVSS | high polyreactivity
9 | QVQLVESGGGLVQAGGSLRLSCAASGSILYYYVMGWYRQAPGKERELVAAITSGGSTYYADSVKGRFTISRDNAKYTVYFQMIILKPEDTAVFYCAVGYVLTGVFQARFDYWGQGTQVNVSS | high polyreactivity
10 | QVQLVESGGGLVQAGGSLRLSCAASGSIMGWYRQAPGKERELVAAISRGGSTYYADSVKGRFTISRDNAKNTVYLQMNSLKPEDTAVYYCAAKTGGSRSRFEYWGQGTQVTVSS | high polyreactivity
11 | QVQLVESGGGLVQAGGSLRLSCAASGSIRSYAMGWYRQAPGKERELVAAITRSGGSTYYADSVKGRFTISRDNAKITVYLQMNSLKPEDTAFYYCAARYTYSYPLFGSWGQGTQVTVSS | high polyreactivity
12 | QVQLVESGGGLVQAGGSLRLSCAASGSIRSYAMGWYRQAPGKERELVAAITRSGGSTYYADSVKGRFTISRDNAMNTVYLQMNSLKPEDTAVYYCAARYTYSYPLFGSWGQGTQVTVSS | high polyreactivity
13 | QVQLVESGGGLVQAGGSLRLSCAASGSIRYYAMGWYRPAPGKERELVAGITRNGGSTYYADSVKGRFTISRDNAKNTVYLQMNSLKPEDTAVYYCAAGFTTRRGEYNYWGQGTQVTVSS | high polyreactivity
14 | QVQLVESGGGLVQAGGSLRLSCAASGSIRYYAMGWYRQAPGKERELVAAISSRGTNTYYADSVKGRFTISRDNAKNTVYLQMNSLKPEDTAVYYCIAVVGLGYNYWGQGTQVTVSS | high polyreactivity
15 | QVQLVESGGGLVQAGGSLRLSCAASGSISDTYGLGWYRQAPGKERELVASITWSSGSTDYADSVKGRFTISRDNAKNTVYLQMNSLKPEDTAVYYCATYEPFYSFFFRGIYDYWGQGTQVTVSS | low polyreactivity
16 | QVQLVESGGGLVQAGGSLRLSCAASGSISDVYAMGWYRQAPGKERELVAAITSGASTYYADSVKGRFTISRDNAKNTVYLQMNSLKPEDTAVYYCAADSDSQWGMDYWGQGTQVTVSS | low polyreactivity
17 | QVQLVESGGGLVQAGGSLRLSCAASGSISFINAMGWYRQAPGKERELVAAISGSGGSTYYADSVKGRFTISRDNAKNTVYLQMNSLKPEDTAVYYCAADYRIHWYIAYGYWGQGTQVTVSS | low polyreactivity
18 | QVQLVESGGGLVQAGGSLRLSCAASGSISFSNAMGWYRQAPGKERELVAAISWSGGRTYYADSVKGRCTISRDNAKNTVYLQMNSLKPEDTAVYYCAADDFRYGRQVLGLNDYNYWGLGTQVTVSS | low polyreactivity
19 | QVQLVESGGGLVQAGGSLRLSCAASGSISGWYAMGWYRQAPGKERELVADISSIAGSTYYADSVKGRFTISRDNAKNTVYLQMNSLKPEDTAVYYCAADDAAWPYSWWGFDYWGQGTQVTVSS | low polyreactivity
20 | QVQLVESGGGLVQAGGSLRLSCAASGSISGYYAMGWYRQAPGKESELVASIRYTGARTYYADSVKGRFTISRDNAKNTVYLQMNSLKPEDTAVYYCAADVKRDRVWGGDYWGQGTQVTVSS | low polyreactivity
21 | QVQLVESGGGLVQAGGSLRLSCAASGSISGYYDMGWYRQAPGKEREFVAAISLSTTSTYYADSVKGRFTISRDNAKNTVYLQMNSLKPEDTAVYYCATDIVGPHFDYWGQGTQVTVSS | low polyreactivity

Row | Sequence | polyreactivity (PSR sort gate)
22 | QVQLVESGGGLVQAGGSLRLSCAASGSISGYYDMGWYRQAPGKERELVAASSWNGADTYYADSVKGRFTISRDNAKNTVYLQMNSLKPEDTAVYYCAAERENGDHYRYYYWGQGTQVNVSS | low polyreactivity
23 | QVQLVESGGGLVQAGGSLRLSCAASGSISIKNAMGWYSQAPGKERELVATITYNGGSTYYADSVKGRFTISRDNAKNTVYLQMNSLKPEDTAVYYCSAGYLYYAEYDYWGQGTQVTVSS | low polyreactivity
24 | QVQLVESGGGLVQAGGSLRLSCAASGSISKGYAMGWYRQAPGKERELVARISGDGGSTYYADSVKGRFTISRDNAKNTVYLQMNSLKPEDTAVYYCNARAYYGIRYYSWGQGTQVTVSS | high polyreactivity
25 | QVQLVESGGGLVQAGGSLRLSCAASGSISKINAMGWYRQAPGKERELVAAINTGDSTYYADSVKGRFTISRDNAKNTVYLQMNCLKPEDTAVYYCAAEGSPTGYDYWGQGTQVTVSS | low polyreactivity
26 | QVQLVESGGGLVQAGGSLRLSCAASGSISLAYAMGWYRQAPGKERELVAAISFRTGRTFYADSVKGRFTISRDNAKNTVYLQMNSLKPEDTAVYYCAAENLDFYFEEYWGQGTQVTVSS | high polyreactivity
27 | QVQLVESGGGLVQAGGSLRLSCAASGSISPQNVMGWYRQAPGKERELVAAITGGGSTNYADSVKGRFTISRDNAKQTVYLQLNSLKPEDTAVYYCNADYFQDRLDYWGQGTQVTVSS | low polyreactivity
28 | QVQLVESGGGLVQAGGSLRLSCAASGSISRFNTMGWYRQAPGKERELVAAITVSGGSTYYADSVKGRFTISRDNAKNTVYLQMNSLKPEDTAVYYCAKEAWRYRLNFRYNYWGQGTQVTVSS | low polyreactivity
29 | QVQLVESGGGLVQAGGSLRLSCAASGSISSKNAMGWYRQPPGKERQFDAVISGTGGSTYYADSVKGRFTISRDNAKNTVYLQMNSLKPEDTAVYYCAAAASSIVSYGYTWTYGYWGLGTQVTVSS | low polyreactivity
30 | QVQLVESGGGLVQAGGSLRLSCAASGSISTNYAMGWYRQAPGKERELVAAISSSGGSTYYADSVKGRFTISRDNAKNTVYLQMNSLKPEDTAVYYCRYKFGYWGQGTQVTVSS | high polyreactivity
31 | QVQLVESGGGLVQAGGSLRLSCAASGSISVYNAMGWYRQAPGKVRELVAAISWSGGRTSYADSVKGRFTISRDHAKNTVYLQMNSLKPEDTAVYYCAADELTGLWDEDYWGPGTQVTVSS | low polyreactivity
32 | QVQLVESGGGLVQAGGSLRLSCAASGSISWVYAMGWYRQAPGKERELVAAISNSGGSTYYADSVKGRFTISRDNAKNTVYLQMNSLKPEDTAVYYCAADGYFYYSAFWASPYEYWGQGTQVTVSS | high polyreactivity
33 | QVQLVESGGGLVQAGGSLRLSCAASGSISYYNAMGWYRQAPGKERELVAAITYSAGGTYYADSVKGRFTISRDNAKNTVYLQMNSLKPEDTAVYYCAADAYKHVAYGGVYWYYYWGLGTQVTVSS | high polyreactivity
34 | QVQLVESGGGLVQAGGSLRLSCAASGSISYYNAMGWYRQAPGKERELVATITDSGGSTYYADSVKGRFTISRDNAKNTVYLQMNSLKPEDTAVYYWAVDYSEWYSIYEYWGQGTQVTVSS | low polyreactivity
35 | QVQLVESGGGLVQAGGSLRLSCAASGSIVAGNAMGWYIQAPGKEREMVAAITWRSGRTYYADSVKGRFTISRDNAKNTVNLQMNSLKPVDTAVYYCARGRYGYTAPVRRWYFRYDYWGQGTQVTVSS | high polyreactivity
36 | QVQLVESGGGLVQAGGSLRLSCAASGSIVDNRGWYRQAPGKERELVAAISSSGDSTYYADSVKGRFTISRDNAKNTVYLQMNSLKPEDTAVYYCAADFYYYKKQYDYWGQGTQVTVSS | low polyreactivity
37 | QVQLVESGGGLVQAGGSLRLSCAASGSIVGYAMGWYRQAPGKERELVAAISSGGSTNYADSVKGRFTISRDNAKNTVYLQMNSLKPEDTAVYYCAKSWRWRANLRGYYWGQGTQVTVSS | high polyreactivity
38 | QVQLVESGGGLVQAGGSLRLSCAASGSIVRSYAMGWYRQAPGKERELVASITDGTITNYADSVKGRFTISRDNAKNTVYLQMISLKPDDTAVYYCAAGTLAHAYVVRPIEMDYWGQGTQVTVSS | low polyreactivity
39 | QVQLVESGGGLVQAGGSLRLSCAASGSIVSAYVMGWYRQAPGKERELVAAITRSGGSTYYADSVKGRFTISRDNAKNTVYLQMNSLKPEDTAVYYCAADRRWFAYWFDYWGQGTQVTVSS | low polyreactivity
40 | QVQLVESGGGLVQAGGSLRLSCAASGSIVVPYTMGWYRQAPGKEMELVAAINSSDDSTFYADSVKGRFTISRENAKNTVYIKMNSLKPEDTAVYYCNATGYARWYTGDYWGQGTQVTVSS | low polyreactivity
41 | QVQLVESGGGLVQAGGSLRLSCAASGSIVYYNAMGWYRQAPGKERELVASISNGGSTDYADSVKGRFTISRDNAKNTVYLQMNSLKPEDTAVYSCNAKQSYRSEYDYWGQGTQVTVSS | low polyreactivity

From the nanobody polyreactivity screen of Harvey et al. (2022)
